Experimental data from paper PMC7608686, “The interaction of DNA repair factors ASCC2 and ASCC3 is affected by somatic cancer mutations” (Nature Communications, 2020).
Ends that are not written are not given here.

T1: ASCC2^1-434 (human, UniProt Q9H1I8 1-434)
T1 chain: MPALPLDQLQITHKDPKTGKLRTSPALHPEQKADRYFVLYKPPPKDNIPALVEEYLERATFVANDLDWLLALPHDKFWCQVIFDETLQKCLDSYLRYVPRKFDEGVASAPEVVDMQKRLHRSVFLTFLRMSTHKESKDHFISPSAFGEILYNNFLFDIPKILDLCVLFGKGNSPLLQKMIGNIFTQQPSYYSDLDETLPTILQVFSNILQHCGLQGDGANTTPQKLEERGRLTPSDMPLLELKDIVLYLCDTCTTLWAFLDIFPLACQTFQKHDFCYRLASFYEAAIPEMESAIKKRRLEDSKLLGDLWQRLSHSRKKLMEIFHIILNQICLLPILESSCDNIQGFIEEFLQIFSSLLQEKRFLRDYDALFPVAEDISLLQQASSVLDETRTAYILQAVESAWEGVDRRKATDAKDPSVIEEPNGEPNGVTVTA

T2: ASCC3^1-22 peptide R5C (human, UniProt Q8N3C0 1-22, R5C, C-terminal amination)
T2 construct: ASCC3, human, N-terminal 22 residues with the somatic cancer substitution R5C; source: synthetic peptide (GL biochem)
T2 peptide (looked up): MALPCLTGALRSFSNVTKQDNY

T3: ASCC3^1-22 peptide R5L (human, UniProt Q8N3C0 1-22, R5L, C-terminal amination)
T3 construct: ASCC3, human, N-terminal 22 residues with the somatic cancer substitution R5L; source: synthetic peptide (GL biochem)
T3 peptide (looked up): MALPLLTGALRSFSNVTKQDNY

T4: ASCC3^1-22 peptide R5G (human, UniProt Q8N3C0 1-22, R5G, C-terminal amination)
T4 construct: ASCC3, human, N-terminal 22 residues with the somatic cancer substitution R5G; source: synthetic peptide (GL biochem)
T4 peptide (looked up): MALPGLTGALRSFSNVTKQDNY

T5: ASCC3^1-22 peptide R5H (human, UniProt Q8N3C0 1-22, R5H, C-terminal amination)
T5 construct: ASCC3, human, N-terminal 22 residues with the somatic cancer substitution R5H; source: synthetic peptide (GL biochem)
T5 peptide (looked up): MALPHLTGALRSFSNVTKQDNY

T6: ASCC2^1-434, elastase fragment of ASCC2^FL (human, UniProt Q9H1I8 1-434)
T6 construct: Proteolytic fragment; also called approximately 50 kDa fragment of ASCC2; source: elastase digestion of the purified ASCC2^FL-ASCC3^NTR complex (proteins from insect cells); not shown: His10, N-terminal, cleaved
T6 sequence (looked up): T1 chain

T7: Seleno-methionine (SeMet)-derivatized ASCC2^1-434 (human, UniProt Q9H1I8 1-434, seleno-methionine (SeMet) in place of methionine)
T7 construct: Unmodified complex (co-produced in High Five cells) was crystallized too; the structure was solved by SAD with the SeMet complex; source: E. coli BL21 (DE3), PASM-5052 medium with SeMet, purified (Ni-NTA, SEC); not shown: His6, N-terminal, cleaved
T7 sequence (looked up): T1 chain

T8: Full-length ASCC2 (ASCC2^FL) (human, UniProt Q9H1I8 1-757)
T8 construct: from a synthetic gene (GeneArt); TEV-cleavable tag; source: insect cells (High Five), recombinant, purified (Ni-NTA, SEC); not shown: His10, N-terminal, cleaved
T8 sequence (looked up): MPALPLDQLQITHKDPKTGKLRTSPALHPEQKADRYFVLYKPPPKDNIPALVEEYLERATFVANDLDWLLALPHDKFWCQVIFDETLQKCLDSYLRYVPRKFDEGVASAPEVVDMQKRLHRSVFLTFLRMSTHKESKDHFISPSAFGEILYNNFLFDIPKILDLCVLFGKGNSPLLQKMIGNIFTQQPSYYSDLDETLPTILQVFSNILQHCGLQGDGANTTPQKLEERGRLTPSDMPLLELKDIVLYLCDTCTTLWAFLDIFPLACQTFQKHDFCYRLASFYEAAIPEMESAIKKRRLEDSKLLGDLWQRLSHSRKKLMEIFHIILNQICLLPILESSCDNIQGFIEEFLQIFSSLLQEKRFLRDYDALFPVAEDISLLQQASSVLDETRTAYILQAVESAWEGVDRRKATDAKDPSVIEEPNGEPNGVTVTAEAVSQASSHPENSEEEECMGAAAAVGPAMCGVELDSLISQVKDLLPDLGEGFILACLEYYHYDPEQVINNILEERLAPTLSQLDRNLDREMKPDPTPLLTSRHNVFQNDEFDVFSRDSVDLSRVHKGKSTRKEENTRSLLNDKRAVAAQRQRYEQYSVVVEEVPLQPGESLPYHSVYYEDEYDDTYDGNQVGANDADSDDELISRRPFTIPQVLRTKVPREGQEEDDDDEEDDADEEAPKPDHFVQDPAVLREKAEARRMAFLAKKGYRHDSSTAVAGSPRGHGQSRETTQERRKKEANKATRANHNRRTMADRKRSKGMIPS

B1: ASCC3^16-197 (domain or fragment, human, UniProt Q8N3C0 16-197, looked up)
chain: VTKQDNYNEEVADLKIKRSKLHEQVLDLGLTWKKIIKFLNEKLEKSKMQSINEDLKDILHAAKQIVGTDNGREAIESGAAFLFMTFHLKDSVGHKETKAIKQMFGPFPSSSATAACNATNRIISHFSQDDLTALVQMTEKEHGDRVFFGKNLAFSFDMHDLDHFDELPINGETQKTISLDYK
notes: also called partial N-arm deletion variant; source: E. coli BL21 (DE3), purified (Ni-NTA, SEC); not shown: His6, N-terminal, cleaved
B2: ASCC3^1-22 peptide, wild type (peptide, UniProt Q8N3C0 1-22, looked up)
peptide: MALPRLTGALRSFSNVTKQDNY-NH2
notes: ASCC3, human, N-terminal 22 residues; also called WT ASCC3^1-22; source: synthetic peptide (GL biochem)
B3: ASCC2^1-434 (domain or fragment, human, UniProt Q9H1I8 1-434, looked up)
chain: T1 chain
notes: source: E. coli BL21 (DE3), purified (Ni-NTA, SEC); not shown: His6, N-terminal, cleaved
B4: ASCC3^1-207, elastase fragment of ASCC3^NTR (domain or fragment, human, UniProt Q8N3C0 1-207, looked up)
chain: MALPRLTGALRSFSNVTKQDNYNEEVADLKIKRSKLHEQVLDLGLTWKKIIKFLNEKLEKSKMQSINEDLKDILHAAKQIVGTDNGREAIESGAAFLFMTFHLKDSVGHKETKAIKQMFGPFPSSSATAACNATNRIISHFSQDDLTALVQMTEKEHGDRVFFGKNLAFSFDMHDLDHFDELPINGETQKTISLDYKKFLNEHLQEA
notes: ASCC3, human, N-terminal 207 residues, mapped by mass spectrometric fingerprinting; Proteolytic fragment; also called N-terminal, 207-residue fragment of ASCC3; source: elastase digestion of the purified ASCC2^FL-ASCC3^NTR complex (proteins from insect cells); not shown: His10, N-terminal, cleaved
B5: ASCC3^1-207 (domain or fragment, human, UniProt Q8N3C0 1-207, looked up)
chain: B4 chain
notes: ASCC3, human, residues 1-207; residues 1-186 traced in the model; source: insect cells, recombinant, purified (Ni-NTA, SEC); not shown: His10, N-terminal, cleaved
B6: ASCC3 N-terminal region (ASCC3^NTR; residues 1-400) (domain or fragment, human, UniProt Q8N3C0 1-400, looked up)
chain: MALPRLTGALRSFSNVTKQDNYNEEVADLKIKRSKLHEQVLDLGLTWKKIIKFLNEKLEKSKMQSINEDLKDILHAAKQIVGTDNGREAIESGAAFLFMTFHLKDSVGHKETKAIKQMFGPFPSSSATAACNATNRIISHFSQDDLTALVQMTEKEHGDRVFFGKNLAFSFDMHDLDHFDELPINGETQKTISLDYKKFLNEHLQEACTPELKPVEKTNGSFLWCEVEKYLNSTLKEMTEVPRVEDLCCTLYDMLASIKSGDELQDELFELLGPEGLELIEKLLQNRITIVDRFLNSSNDHRFQALQDNCKKILGENAKPNYGCQVTIQSEQEKQLMKQYRREEKRIARREKKAGEDLEVSEGLMCFDPKELRIQREQALLNARSVPILSRQRDADVEKI
notes: ASCC3, human, N-terminal region, residues 1-400; The results say insect cells; source: insect cells, recombinant, purified (Ni-NTA; SEC step omitted); not shown: His10, N-terminal, cleaved
B7: ASCC3^1-197 (domain or fragment, human, UniProt Q8N3C0 1-197, looked up)
chain: MALPRLTGALRSFSNVTKQDNYNEEVADLKIKRSKLHEQVLDLGLTWKKIIKFLNEKLEKSKMQSINEDLKDILHAAKQIVGTDNGREAIESGAAFLFMTFHLKDSVGHKETKAIKQMFGPFPSSSATAACNATNRIISHFSQDDLTALVQMTEKEHGDRVFFGKNLAFSFDMHDLDHFDELPINGETQKTISLDYK
notes: as for B3
B8: ASCC3^1-161 (domain or fragment, human, UniProt Q8N3C0 1-161, looked up)
chain: MALPRLTGALRSFSNVTKQDNYNEEVADLKIKRSKLHEQVLDLGLTWKKIIKFLNEKLEKSKMQSINEDLKDILHAAKQIVGTDNGREAIESGAAFLFMTFHLKDSVGHKETKAIKQMFGPFPSSSATAACNATNRIISHFSQDDLTALVQMTEKEHGDRV
notes: ASCC3, human, residues 1-161 (lacks the C-arm); source: E. coli BL21 (DE3), purified (Ni-NTA, SEC); not shown: His6, N-terminal, cleaved

Assays:
[1] = molecular target: T1, ASCC2^1-434; assay: ITC
[2] = molecular target: B3; assay: ITC; iTC200; ASCC3 variant (10 µM) in the sample cell, ASCC2 variant (100 µM) in the syringe; 20 mM HEPES-NaOH, pH 7.5, 100 mM NaCl; 25 °C; stoichiometry fixed to 1; conditions: both partners purified
[3] = molecular target: B3; assay: ITC; iTC200; ASCC3^1-22 peptide (10-15 µM) in the sample cell, ASCC2^1-434 (200 µM or 400 µM) in the syringe; 20 mM HEPES-NaOH, pH 7.5, 100 mM NaCl; 25 °C; stoichiometry fixed to 1; conditions: both partners purified
[4] = molecular target: T2, ASCC3^1-22 peptide R5C; assay: as above; conditions: both partners purified
[5] = molecular target: T3, ASCC3^1-22 peptide R5L; assay: as above; conditions: both partners purified
[6] = molecular target: T4, ASCC3^1-22 peptide R5G; assay: as above; conditions: both partners purified
[7] = molecular target: T5, ASCC3^1-22 peptide R5H; assay: as above; conditions: both partners purified
[8] = molecular target: T6, ASCC2^1-434, elastase fragment of …; assay: SEC; SEC of the fragments left after elastase digestion of the ASCC2^FL-ASCC3^NTR complex; conditions: both partners purified
[9] = molecular target: T7, Seleno-methionine (SeMet)-derivatized …; assay: crystal structure; SeMet SAD, 2.7 Å; complex reconstituted by SEC from SeMet ASCC2^1-434 (E. coli) and ASCC3^1-207 (insect cells); hanging drop, 4 °C, 0.1 M MES-NaOH, pH 6.5; conditions: both partners purified
[10] = molecular target: T8, Full-length ASCC2 (ASCC2^FL); assay: ITC; iTC200; ASCC3 variant (10 µM) in the sample cell, ASCC2 variant (100 µM) in the syringe; 20 mM HEPES-NaOH, pH 7.5, 100 mM NaCl; 25 °C; stoichiometry fixed to 1; conditions: both partners purified

Binder MALPCLTGALRSFSNVTKQDNY-NH2 [ASCC3^1-22 peptide R5C] has a Kd [1] of 46.5 µM.

In the case of MALPHLTGALRSFSNVTKQDNY-NH2 [ASCC3^1-22 peptide R5H], the Kd [1] is reported as 43.8 µM.

With MALPGLTGALRSFSNVTKQDNY-NH2 [ASCC3^1-22 peptide R5G] the Kd [1] was 21.6 µM.

Binder MALPLLTGALRSFSNVTKQDNY-NH2 [ASCC3^1-22 peptide R5L] has a Kd [1] of 15.4 µM.

For B1, the Kd [2] was 483 nM.

B2 was tested, and the Kd [3] was 2000 nM.

In the case of B3, the “fold reduced affinity compared to WT ASCC3^1-22” value [4] is reported as > 20 fold, the “fold weaker interaction than with WT ASCC3^1-22” value [5] is reported as ~8 fold and the “fold weaker interaction than with WT ASCC3^1-22” value [6] is reported as ~11 fold. The “fold reduced affinity compared to WT ASCC3^1-22” value [7] was > 20 fold.

B4: binds [8].

B5: binds [9].

With B6 the Kd [10] was 3.5 nM.

B7 gave a Kd [2] of 3.8 nM.

In the case of B8, the Kd [2] is reported as 47.7 nM.
